Test results as given in US20020090682A1 (AMRAD OPERATIONS, published 2002).

Tests used:
[1] = molecular target: T1, murine NR4 (IL-13 receptor α-chain, IL-13Rα) expressed in COS cells (murine, UniProt O09030 27-424); assay: Scatchard analysis of 125I-IL-13 binding to COS cells expressing NR4
T1 construct: also called IL-13Rα(NR4)
T1 sequence: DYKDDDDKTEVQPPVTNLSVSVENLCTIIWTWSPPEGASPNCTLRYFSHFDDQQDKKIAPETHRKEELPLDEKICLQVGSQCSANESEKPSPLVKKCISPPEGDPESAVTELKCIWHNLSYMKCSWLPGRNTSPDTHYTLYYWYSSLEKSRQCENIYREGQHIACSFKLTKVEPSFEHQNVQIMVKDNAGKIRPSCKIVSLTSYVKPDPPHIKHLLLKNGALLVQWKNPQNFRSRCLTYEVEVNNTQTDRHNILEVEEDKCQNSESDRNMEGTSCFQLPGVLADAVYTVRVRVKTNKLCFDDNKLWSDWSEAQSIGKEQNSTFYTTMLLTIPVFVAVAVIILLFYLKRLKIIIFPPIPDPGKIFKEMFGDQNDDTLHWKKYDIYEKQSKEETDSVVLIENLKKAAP

[2] = molecular target: T2, IL-13Rα(NR4) expressed in CTLL cells (high affinity IL-13 receptor; cells also carry the IL-4 receptor) (murine, UniProt P16382 26-810); assay: Scatchard analysis of 125I-IL-13 binding to CTLL cells expressing the IL-13Rα(NR4)
T2 sequence (P16382 26-810): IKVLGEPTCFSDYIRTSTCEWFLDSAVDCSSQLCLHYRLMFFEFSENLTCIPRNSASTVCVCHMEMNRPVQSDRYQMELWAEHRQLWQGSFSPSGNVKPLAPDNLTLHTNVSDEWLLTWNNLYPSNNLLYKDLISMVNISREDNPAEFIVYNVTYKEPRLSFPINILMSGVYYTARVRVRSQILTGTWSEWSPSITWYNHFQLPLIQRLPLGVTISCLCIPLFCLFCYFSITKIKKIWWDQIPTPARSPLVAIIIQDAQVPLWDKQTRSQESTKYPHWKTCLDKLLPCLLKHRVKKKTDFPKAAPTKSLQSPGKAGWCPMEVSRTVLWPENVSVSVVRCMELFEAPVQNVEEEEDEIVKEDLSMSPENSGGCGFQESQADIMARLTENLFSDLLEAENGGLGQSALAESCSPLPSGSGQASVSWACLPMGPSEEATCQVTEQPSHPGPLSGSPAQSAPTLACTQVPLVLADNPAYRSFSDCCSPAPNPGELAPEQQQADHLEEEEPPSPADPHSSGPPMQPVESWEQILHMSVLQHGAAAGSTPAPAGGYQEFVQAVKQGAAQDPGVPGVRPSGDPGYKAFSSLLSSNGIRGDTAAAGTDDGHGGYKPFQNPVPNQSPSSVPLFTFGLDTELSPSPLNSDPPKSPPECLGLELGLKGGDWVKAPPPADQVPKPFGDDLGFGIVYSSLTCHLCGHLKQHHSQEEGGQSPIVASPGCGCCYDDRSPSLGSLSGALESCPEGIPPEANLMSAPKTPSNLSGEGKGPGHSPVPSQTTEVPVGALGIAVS
Procedure: Data have been normalised to 1×10⁴ COS cells and 1×10⁶ CTLL cells and binding was carried out on ice for 2 to 4 hours.
A likely candidate based on previous studies is the IL-4Rα.

[3] = molecular target: T2, IL-13Rα(NR4) expressed in CTLL cells …; assay: unlabelled IL-13 competing with 125I-IL-13 for binding to CTLL cells expressing the IL-13Rα(NR4)

B1: IL-13 (obtained commercially, R & D Systems) (ligand)
chain: APGPVPRSVSLPLTLKELIEELSNITQDQTPLCNGSMVWSVDLAAGGFCVALDSLTNISNCNAIYRTQRILHGLCNRKAPTTVSSLPDTKIEVAHFITKLLSYTKQLFRHGPF
modifications: Radioiodinated (125I, iodine monochloride method) in the labelled form.
notes: the receptor and the cells are murine; also called unlabelled IL-13
**Q.** Which Kd [1] does the source give for B1 here?
**A.** 2 to 10 nM

**Q.** What about the Kd [2] of the same binder?
**A.** ~0.075 nM

**Q.** And the IC50 [3]?
**A.** ~0.3 nM
